# Assay results from patent US20250346663A1 (published 2025).
# B1: human leptin receptor (Fc-tagged dimeric) (Fc fusion)
# chain: FNLSYPITPWRFKLSCMPPNSTYDYFLLPAGLSKNTSNSNGHYETAVEPKFNSSGTHFSNLSKTTFHCCFRSEQDRNCSLCADNIEGKTFVSTVNSLVFQQIDANWNIQCWLKGDLKLFICYVESLFKNLFRNYNYKVHLLYVLPEVLEDSPLVPQKGSFQMVHCNCSVHECCECLVPVPTAKLNDTLLMCLKITSGGVIFQSPLMSVQPINMVKPDPPLGLHMEITDDGNLKISWSSPPLVPFPLQYQVKYSENSTTVIREADKIVSATSLLVDSILPGSSYEVQVRGKRLDGPGIWSDWSTPRVFTTQDVIYFPPKILTSVGSNVSFHCIYKKENKIVPSKEIVWWMNLAEKIPQSQYDVVSDHVSKVTFFNLNETKPRGKFTYDAVYCCNEHECHHRYAELYVIDVNINISCETDGYLTKMTCRWSTSTIQSLAESTLQLRYHRSSLYCSDIPSIHPISEPKDCYLQSDGFYECIFQPIFLLSGYTMWIRINHSLGSLDSPPTCVLPDSVVKPLPPSSVKAEITINIGLLKISWEKPVFPENNLQFQIRYGLSGKEVQWKMYEVYDAKSKSVSLPVPDLCAVYAVQVRCKRLDGLGYWSNWSNPAYTVVMDIKVPMRGPEFWRIINGDTMKKEKNVTLLWKPLMKNDSLCSVQRYVINHHTSCNGTWSEDVGNHTKFTFLWTEQAHTVTVLAINSIGASVANFNLTFSWPMSKVNIVQSLSAYPLNSSCVIVSWILSPSDYKLMYFIIEWKNLNEDGEIKWLRISSSVKKYYIHDHFIPIEKYQFSLYPIFMEGVGKPKIINSFTQDDIEKHQSD
# B2: human FC-tagged dimeric leptin receptor (Fc fusion)
# chain: B1 chain
# How the values were obtained:
# Gen2 leptin = experiment: BLI; sample PP5871-021
# [1] = molecular target: mbp_G4S_hlep(22-167)V94M (MBP-(G4S)-human leptin V94M-6His); experiment: BLI; sample PP2054-095
Binder,Kd (Gen2 leptin) [nM],Kd [1] [nM]
B1,1.41,–
B2,–,0.93
